Several values for one entry are separate records, joined by “and”; a condition that tells them apart may be missing. Equal values may be shown once. Read-outs that look alike come from different tables or passages of the source.
How the values were obtained:
[1] = tested on: Go reconstituted in phospholipid vesicles; test: GTPγS binding to Go reconstituted in phospholipid vesicles; assay type: biochemical, bovine; conditions: FIG. 1(e)
Procedure: (§1) Biophys. Acta 161:1280-1285, 1989.
GTPγS binding to peptides was negligible.
Reconstitution of Go into phospholipid vesicles was accomplished with 1 mg/ml of phosphatidylcholine, using the gel filtration method (Nishimoto et al., J. Biol. Chem. 264:14029-14038, 1989). In a final incubation for GTPγS binding, 5 nM of reconstituted Go was used.
As illustrated in FIG. 1(e), Go reconstituted in phospholipid vesicles was incubated with transmembrane region-connected peptide 20 ([…], SEQ ID NO: 18; .quadrature.) or the partial sequence of the APP transmembrane domain alone (TVIVITLVML, SEQ ID NO: 7; .quadrature.). Transmembrane region-connected peptide 20 (SEQ ID NO: 18) was also incubated with Go in the absence of phospholipids and the presence of 0.07% CHAPS (.diamond-solid.). The transmembrane region-connected peptide 20 (SEQ ID NO: 18) stimulated Go reconstituted in phospholipid vesicles with a potency 10 times greater than that of peptide 20 (SEQ ID NO: 1). […]
Preactivation of pertussis toxin (Funakoshi, Japan) was carried out by treating the toxin with 100 μM ATP and 1 mM DTT for 10 min at 30° C. […] Increasing concentrations of peptide 20 (SEQ ID NO: 1) were incubated for 2 min with Go reconstituted in phospholipid vesicles which had been treated with pertussis toxin in the presence (.diamond-solid.) or absence (.quadrature.) of NAD, and GTPγS binding to Go was measured.

Go [2] = biological target: T1, Go (Bos taurus, UniProt P08239)
T1 sequence (P08239 whole entry): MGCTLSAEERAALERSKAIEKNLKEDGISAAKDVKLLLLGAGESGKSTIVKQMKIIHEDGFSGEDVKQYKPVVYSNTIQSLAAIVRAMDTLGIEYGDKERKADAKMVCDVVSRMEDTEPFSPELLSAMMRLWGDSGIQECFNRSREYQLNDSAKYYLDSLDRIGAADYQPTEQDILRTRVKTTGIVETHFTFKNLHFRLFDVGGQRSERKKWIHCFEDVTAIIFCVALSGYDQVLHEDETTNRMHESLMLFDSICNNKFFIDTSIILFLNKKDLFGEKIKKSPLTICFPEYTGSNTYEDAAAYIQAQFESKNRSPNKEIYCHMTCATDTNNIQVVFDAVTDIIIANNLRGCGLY
T1 sequence (P62871 whole entry partner): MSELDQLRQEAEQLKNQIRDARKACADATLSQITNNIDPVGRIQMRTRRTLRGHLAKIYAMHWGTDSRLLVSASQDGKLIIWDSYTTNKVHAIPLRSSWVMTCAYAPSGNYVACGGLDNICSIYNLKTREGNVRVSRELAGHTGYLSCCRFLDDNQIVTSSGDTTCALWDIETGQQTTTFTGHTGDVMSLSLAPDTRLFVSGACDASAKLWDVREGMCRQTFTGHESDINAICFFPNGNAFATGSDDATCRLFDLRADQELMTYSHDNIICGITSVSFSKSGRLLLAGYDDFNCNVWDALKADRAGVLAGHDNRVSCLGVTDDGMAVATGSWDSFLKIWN
T1 sequence (P63212 1-68 partner): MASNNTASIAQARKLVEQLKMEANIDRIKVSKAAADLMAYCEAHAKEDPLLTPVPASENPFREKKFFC
Procedure: Trimeric Go was purified to homogeneity from bovine brain as described (Katada et al., FEBS Lett. 213:353-358, 1987). This Go preparation was stored in 20 mM Hepes/NaOH (pH 7.4), 1 mM EDTA, and 0.7% CHAPS, and diluted ≥10 fold for assays.
GTPγS binding to Go was assayed in a buffer containing 50 mM Hepes/NaOH (pH 7.4), 100 μM EDTA, 120 μM MgCl2, and 60 nM [^35 S]GTPγS (DuPont-New England Nuclear) at 37° C., and the fraction of total Go bound to GTPγS was measured as described (Okamoto et al., Cell 62:709-717, 1990). […] The total amount of Go in a given preparation was defined as the saturation amount of GTPγS bound to Go following a 30-min incubation of Go with 10 mM Mg^2+ and ≥60 nM GTPγS at 30° C.
In the experiment shown in FIG. 1(b), 10 nM Go was incubated with water or 100 μM of each peptide for 2 min, and the amount of GTPγS bound to Go at the end of this period was measured. In the experiment shown in FIG. 1(c), 10nM Go was incubated with water (O) or 100 μM peptide 20 (SEQ ID NO: 1) (.oval-solid.), and GTPγS binding was measured at the indicated times. […] GTPγS binding to Go in the presence or absence of peptide 20 (SEQ ID NO: 1) obeyed first-order kinetics according to the equation
(B is the binding at time t; BT is the total binding observable at infinite time; and kapp is the rate constant for GTPγS binding).
In this experiment, 10 nM Go was incubated with various concentrations of [sequence] (peptide 20, SEQ ID NO: 1; .quadrature.), [sequence] (H-deleted, SEQ ID NO: 14; .diamond.), [sequence] (HH-deleted, SEQ ID NO: 15; .quadrature.), [sequence] (RHLSK-deleted, SEQ ID NO: 16; .diamond-solid.), or [sequence] (KQYTSI-added, SEQ ID NO: 17; .box-solid.), and GTPγS binding to Go at 2 min. was measured.

GS = test: Effect of peptide on G proteins other than Go: GS; assay type: biochemical; conditions: data not shown
Excerpt: as §1

Go [3] = biological target: T1, Go; test: Storage stability of the Go-activating ability of the peptide; assay type: physicochemical, bovine; conditions: storage at either -4° C. or -20° C.
c-Ki-ras p21 = test: Effect of peptide on low molecular weight G protein c-Ki-ras p21; assay type: biochemical; conditions: data not shown
Excerpt: as §1

Gi3 = test: Effect of peptide on G proteins other than Go: Gi3; assay type: biochemical; conditions: data not shown
Excerpt: as §1

Gi1 = test: Effect of peptide on G proteins other than Go: Gi1; assay type: biochemical; conditions: data not shown
Excerpt: as §1

APP-Go complex = biological target: T2, APP-Go complex (Bos taurus, UniProt P08239); test: 22C11 (anti-APP) immunoprecipitation of APP and co-precipitation of Go from solubilized brain membranes; assay type: binding, bovine; conditions: 10 μM peptide, FIG. 2d
T2 construct: APP immunoprecipitated with 22C11, co-precipitated Go alpha detected by GC/2
T2 sequence (P08239 whole entry): as the sequence (P08239 whole entry) above
T2 sequence (Q28053 whole entry partner): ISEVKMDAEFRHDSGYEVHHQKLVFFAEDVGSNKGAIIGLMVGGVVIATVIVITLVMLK
T2 sequence (P62871 whole entry partner): as the sequence (P62871 whole entry partner) above
T2 sequence (P63212 1-68 partner): as the sequence (P63212 1-68 partner) above
Procedure: As a control, 2 μg/ml of rabbit IgG was used. After overnight shaking at 4° C., the immunoprecipitated sample was centrifuged at 5000 rpm for 5 min. The pellet was washed three times with ice-cold buffer C and the final pellet was applied to SDS-PAGE. Electroblotting onto a PVDF sheet was performed as described (Okamoto et al., J. Biol. Chem. 266:1085-1091, 1991). After blocking with PBS containing 2% skim milk and 1% BSA, the sheet was incubated with the first antibody [1 μg/ml of 22C11; 1/1000 dilution of anti-Go α monoclonal antibody GC/2 (DuPont-New England Nuclear); 1/1000 dilution of 1C1, a monoclonal antibody against the C-terminal peptide 677-695 of APP695 ] for 4 h, and then exposed to horseradish peroxidase-conjugated goat IgG reactive for mouse or rabbit immunoglobulins for 2-4 h at room temperature. The antigenic bands were detected with an ECL detection kit (Amersham). YL1/2 (SERA Lab), an anti-tubulin antibody, was used at 1:500 dilution for immunodetection.
In this experiment, solubilized brain membranes were incubated with 22C11-coated beads in the presence of 10 μM peptide 20 (SEQ ID NO: 1; 2nd and 5th lanes) or 10 μM of the control peptide, peptide677-695 of APP (SEQ ID NO: 13; 3rd and 6th lanes), or in the absence of both of these peptides (1st and 4th lanes). In this experiment, an anti-mouse IgG antibody different from that used in (a) was employed.

Gi2 = test: Effect of peptide on G proteins other than Go: Gi2; assay type: biochemical; conditions: data not shown
Excerpt: as §1

smg p25A = test: Effect of peptide on low molecular weight G protein smg p25A; assay type: biochemical; conditions: data not shown
Excerpt: as §1

[4] = biological target: Trimeric Go purified from bovine brain (bovine) (UniProt P08239); test: 22C11-precipitate of Sf9 membranes incubated with 1 µg purified Go, immunoblot
[5] = biological target: Trimeric Go purified from bovine brain (bovine) (UniProt P08239)
[6] = 10 nM Go, various peptide concentrations, 2 min, FIG. 1(d)

In the case of TVIVITLVMLHHGVVEVDAAVTPEERHLSK, the “potency in stimulating Go relative to peptide 20” value [1] is reported as 10 times and the “effect on Go compared with peptide 20” value (Go [2]; absence of phospholipids, presence of 0.07% CHAPS, FIG. 1(e)) is reported as “no more potent than peptide 20”.

For “HHGVVEVDAAVTPEERHLSK [peptide 20, peptide corresponding to the His657-Lys676 region of APP]”, the “stimulation of GS” value (GS) was “not stimulated”, the “ability to activate Go during storage” value (Go [3]) was “gradually decreased during storage” and the “stimulation of c-Ki-ras p21” value (c-Ki-ras p21) was “not stimulated”. The “stimulation of Gi3” value (Gi3) was “not stimulated”, the “stimulation of Gi1” value (Gi1) was “not stimulated” and the “22C11-mediated co-precipitation of Go” value (APP-Go complex) was “prevents the 22C11-mediated co-precipitation of Go”. The “precipitation of APP by 22C11” value (APP-Go complex) was “did not affect the precipitation of APP by 22C11”, the “stimulation of Gi2” value (Gi2) was “not stimulated” and the “rate constant of GTPγS binding to Go” value (Go [2]; 10 nM Go, increasing peptide concentrations, FIG. 1(d)) was “stimulated the rate constant of GTPγS binding to Go in a dose-dependent manner”. For the same molecule, the “stimulation of GTPγS binding to Go” value (Go [2]; low (≤100 nM) or high (≥10 mM) Mg2+ concentrations) was “could not be observed”, the “stimulation of GTPγS binding to Go” value (Go [2]; purified trimeric go) was 2-3 fold and the “stimulation of smg p25A” value (smg p25A) was “not stimulated”.

GVVEVDAAVTPEERHLSK [HH-deleted] was tested, and the “Go-activator function of peptide 20 variants (GTPγS binding to Go at 2 min)” value (Go [2]; [6]) was “nullified Go -activator function”.

“recombinant full-length APP695 expressed in Sf9 cells (receptor)” was tested, and the amount of reconstituted Go precipitated [4] was 0.05 µg/tube and 0.1 µg/tube.

“TVIVITLVML [APP(639-648), a portion of the transmembrane region of APP]” was tested, and the “effect on Go (GTPγS binding)” value [1] was “without effect on Go”.

HHGVVEVDAAVTPEE [RHLSK-deleted] was tested, and the “potency relative to peptide 20 in stimulating Go” value (Go [2]; [6]) was “several times less potent than peptide 20”.

For “MQQNGYENPTYKFFEQMQN [APP(677-695), peptide corresponding to C-terminal residues 677-695 of APP695, used as control peptide]”, the “22C11-mediated co-precipitation of Go” value (APP-Go complex) was “no discernable effect”.

With HGVVEVDAAVTPEERHLSK [H-deleted] the “Go-activator function of peptide 20 variants (GTPγS binding to Go at 2 min)” value (Go [2]; [6]) was “nullified Go -activator function”.

B1: transmembrane region-connected peptide 20 (peptide)
peptide: TVIVITLVMLHHGVVEVDAAVTPEERHLSK
B1 gave a GTPγS binding to Go reconstituted in phospholipid vesicles (times greater potency than peptide 20) [5] of 10.

— US5578451A, “Methods and systems for screening potential alzheimer's disease therapeutics” (The General Hospital Corporation, priority 1995, dated 1996)
